Measurements as given in patent US20240400677A1 (ELECTRA THERAPEUTICS, published 2024).
Numbering of substitutions follows the chain as printed.

T1: cynomolgus monkey SIRPγ on CHO cells (cynomolgus monkey, UniProt Q9P1W8 29-386 (human entry))
T1 construct: also called Cyno SIRPγ CHO
T1 chain: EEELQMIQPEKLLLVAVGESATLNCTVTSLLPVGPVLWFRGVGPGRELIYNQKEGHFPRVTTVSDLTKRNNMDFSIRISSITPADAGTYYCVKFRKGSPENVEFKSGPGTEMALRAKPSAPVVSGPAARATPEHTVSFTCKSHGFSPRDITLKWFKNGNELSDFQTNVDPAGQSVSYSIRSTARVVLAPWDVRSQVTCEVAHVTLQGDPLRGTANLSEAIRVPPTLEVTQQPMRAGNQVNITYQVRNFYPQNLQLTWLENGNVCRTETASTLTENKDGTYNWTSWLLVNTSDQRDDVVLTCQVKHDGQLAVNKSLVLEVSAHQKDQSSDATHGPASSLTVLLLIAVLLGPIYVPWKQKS

T2: cynomolgus monkey SIRPγ-His monomer protein (cynomolgus monkey, UniProt Q9P1W8 29-359 (human entry), limits assumed)
T2 construct: also called Cyno SIRPγ; Cyno SIRPγ-His
T2 chain: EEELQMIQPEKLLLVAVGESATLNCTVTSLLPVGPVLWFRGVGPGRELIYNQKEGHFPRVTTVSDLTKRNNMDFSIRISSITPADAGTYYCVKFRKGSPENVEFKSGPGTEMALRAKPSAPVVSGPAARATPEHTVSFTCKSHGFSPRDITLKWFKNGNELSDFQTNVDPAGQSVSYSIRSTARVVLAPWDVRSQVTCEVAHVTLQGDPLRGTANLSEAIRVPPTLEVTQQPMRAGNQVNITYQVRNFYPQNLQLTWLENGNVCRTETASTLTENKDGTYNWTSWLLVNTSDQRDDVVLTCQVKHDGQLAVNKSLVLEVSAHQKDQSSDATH

T3: cynomolgus monkey SIRPα on CHO cells (cynomolgus monkey, UniProt A0A2K5VYQ9 31-507)
T3 construct: whole, on cells; also called Cyno SIRPα CHO
T3 sequence: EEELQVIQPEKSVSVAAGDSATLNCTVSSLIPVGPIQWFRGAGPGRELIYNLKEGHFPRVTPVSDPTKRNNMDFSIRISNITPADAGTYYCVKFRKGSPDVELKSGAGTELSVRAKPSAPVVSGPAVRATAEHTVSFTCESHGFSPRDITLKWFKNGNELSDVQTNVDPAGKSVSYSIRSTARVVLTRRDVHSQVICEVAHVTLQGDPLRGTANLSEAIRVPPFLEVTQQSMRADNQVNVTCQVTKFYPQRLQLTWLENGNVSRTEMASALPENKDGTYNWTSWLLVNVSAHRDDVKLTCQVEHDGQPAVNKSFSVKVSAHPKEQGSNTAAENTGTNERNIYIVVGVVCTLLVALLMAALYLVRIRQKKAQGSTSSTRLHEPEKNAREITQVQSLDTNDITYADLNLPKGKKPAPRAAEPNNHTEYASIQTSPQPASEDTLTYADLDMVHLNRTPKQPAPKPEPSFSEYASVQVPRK

T4: Cynomolgus Monkey SIRPγ (plate-coated extracellular domain)
T4 construct: also called Cyno SIRPγ
T4 extracellular domain: T2 chain

B1: Antibody 12 (scFv, V domains shown)
VH: QVQLVQSGAEVKKPGASVKVSCKASGGTFGSYGINWVRQAPGQGLEWMGWISAYNGNTNYAQKLQGRVTMTRDTSTSTVYMELSSLRSEDTAVYYCARDGIDYGGNSGYDYWGQGTLVTVSS
VL: DIQMTQSPSSLSASVGDRVTITCRASQNIRNYLNWYQQKPGKAPKLLIYAASSLQGGVPSRFSGSGSGTDFTLTISSLQPEDFATYYCQQSYNGPYTFGQGTKVEIK
notes: scFv in crude PPE, V5/myc-tagged
B2: Antibody 46 (scFv, V domains shown)
VH: QVQLVQSGAEVKKPGASVKVSCKASGYTFSSYAISWVRQAPGQGLEWMGWMDPNSGNTGYAQKFQGRVTMTRDTSTSTVYMELSSLRSEDTAVYYCARESSYYYDSSGYYPGWYFDLWGRGTLVTVSS
VL: B1 VL with R24Q, N28D, R30S, S53T, G56T, N93S, G94T, Y96W, Q100P, E105D
notes: as for B1
B3: Antibody 11 (scFv, V domains shown)
VH: QVQLVQSGAEVKKPGASVKVSCKASGYTFTSYDINWVRQAPGQGLEWMGWMNPNSGNTGYAQKFQGRVTMTRDTSTSTVYMELSSLRSEDTAVYYCAKGAVAGTYYYYGMDVWGQGTTVTVSS
VL: DIQMTQSPSSLSASVGDRVTITCRASQTINNYLNWYQQKPGKAPKLLIYDASNLETGVPSRFSGSGSGTDFTLTISSLQPEDFATYYCQQANSFPLTFGQGTKVEIK
notes: as for B1
B4: Antibody 70 (antibody, V domains shown)
VH: QVQLVQSGAEVKKPGASVKVSCKASGYTFSNYYMHWVRQAPGQGLEWMGWMNPNSGNTGYAQKFQGRVTMTRDTSTSTVYMELSSLRSEDTAVYYCARASMYSSSGFDYWGQGTLVTVSS
VL: DIVMTQSPLSLPVTPGEPASISCRSSQSLLHSNGYNYLDWYLQKPGQSPQLLIYLASTRAPGVPDRFSGSGSGTDFTLKISRVEAEDVGVYYCMQGSHWPPSFGQGTRLEIK
B5: Antibody 59 (antibody, V domains shown)
VH: QVQLVQSGAEVKKPGASVKVSCKASGYTFTSYDINWVRQAPGQGLEWMGWMNPNSGNTGYAQKFQGRVTMTRDTSTSTVYMELSSLRSEDTAVYYCARESYAYCSSTSCYDAFDIWGQGTMVTVSS
VL: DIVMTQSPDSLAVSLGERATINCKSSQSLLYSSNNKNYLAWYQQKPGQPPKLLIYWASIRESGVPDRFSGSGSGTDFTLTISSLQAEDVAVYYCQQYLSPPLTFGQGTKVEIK
B6: Antibody 68 (antibody, V domains shown)
VH: QVQLVQSGAEVKKPGASVKVSCKASGYTFTSYYMYWVRQAPGQGLEWMGWINPNSGNTGYAQKFQGRVTMTRDTSTSTVYMELSSLRSEDTAVYYCAKDRRRGVGLAAAGTSAFDIWGQGTMVTVSS
VL: B1 VL with N28S, R30S, Y32W, N34A, G56S, N93S, G94T, V104L
B7: Antibody 72 (antibody, V domains shown)
VH: QVQLVQSGAEVKKPGASVKVSCKASGYTFTDNYLHWVRQAPGQGLEWMGIIETSGGSTDYAQKFQGRVTMTRDTSTSTVYMELSSLRSEDTAVYYCARSFGGYSYDDAFDIWGQGTTVTVSS
VL: B1 VL with R24Q, N28G, R30S, G56S, N93S, G94S
B8: Antibody 63 (antibody, V domains shown)
VH: QVQLVQSGAEVKKPGASVKVSCKASGYTFTGYYMHWVRQAPGQGLEWMGIINPSGGSTNYAQKFQGRVTMTRDTSTSTVYMELSSLRSEDTAVYYCARGPIGYGMDVWGQGTLVTVSS
VL: DIQMTQSPSSLSASVGDRVTITCRASQGIGNDLGWYQQKPGKAPKLLIYAASNLETGVPSRFSGSGSGTDFTLTISSLQPEDFATYYCLQHHSYPFTFGQGTKLEIK

Biological target: T5, human SIRPβ1 on CHO cells (co-transfected with DAP12) (human, UniProt O00241 30-398)
T5 construct: whole, on cells; co-transfected with DAP12; also called Human SIRPβ1 CHO
T5 sequence (O00241 30-398): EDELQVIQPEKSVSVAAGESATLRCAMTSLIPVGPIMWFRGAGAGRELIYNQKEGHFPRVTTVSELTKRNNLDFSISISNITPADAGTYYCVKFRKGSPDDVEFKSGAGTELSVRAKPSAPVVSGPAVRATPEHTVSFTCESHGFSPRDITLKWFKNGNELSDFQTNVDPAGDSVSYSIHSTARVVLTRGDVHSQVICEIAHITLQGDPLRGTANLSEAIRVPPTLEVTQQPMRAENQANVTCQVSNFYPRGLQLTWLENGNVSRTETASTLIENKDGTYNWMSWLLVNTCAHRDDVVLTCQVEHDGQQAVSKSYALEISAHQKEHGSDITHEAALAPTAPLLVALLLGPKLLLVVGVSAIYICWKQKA
Experiment: flow cytometry

binding result	Binder
no binding (tested: fold change <2.0)	B1
no binding (tested: fold change <2.0)	B2
no binding (tested: fold change <2.0)	B3

Biological target: T1, cynomolgus monkey SIRPγ on CHO cells
Experiment: flow cytometry, myc-scFv PPE
Procedure: (§1) Selected antibodies were tested for binding to stably transfected human SIRPγ, SIRPαV1, or SIRPβ1 (co-transfected with DAP12) Chinese hamster ovary (CHO) cells via flow cytometry. A titration of select antibodies was added to the cells and detected using a fluorescently labelled secondary anti-rat IgG antibody or anti-human IgG antibody. Graphs depict the median fluorescence intensity (MFI) at each concentration. FIGS. 5A and 5G show the binding curves of select antibodies to human SIRPγ, cynomolgus monkey SIRPγ, human SIRPα, cynomolgus monkey SIRPα, human SIRPβ1, or cynomolgus monkey SIRPβl-expressing CHO cells detected using an anti-rat IgG antibody. FIGS. 5B-5F and 5H-5L show the binding curves of select antibodies to human SIRPγ, cynomolgus monkey SIRPγ, human SIRPα, cynomolgus monkey SIRPα, human SIRPβ1, or cynomolgus monkey SIRPβ1-expressing CHO cells detected using an anti-human IgG antibody. […] For select antibodies, each myc-tagged SIRPγ scFv antibody as crude PPE was incubated with each of the SIRP-expressing cell lines stated above along with the parental CHO-K1 cell line. […] Fold change value <2.0 is considered a non-binder.

MFI fold change over parental CHO [fold]	Binder
5.94	B1
16	B2
6.18	B3

Biological target: T6, human SIRPγ on stably transfected CHO cells (human, UniProt Q9P1W8 29-387)
T6 construct: also called Human SIRPγ CHO
T6 sequence (Q9P1W8 29-387 limits assumed): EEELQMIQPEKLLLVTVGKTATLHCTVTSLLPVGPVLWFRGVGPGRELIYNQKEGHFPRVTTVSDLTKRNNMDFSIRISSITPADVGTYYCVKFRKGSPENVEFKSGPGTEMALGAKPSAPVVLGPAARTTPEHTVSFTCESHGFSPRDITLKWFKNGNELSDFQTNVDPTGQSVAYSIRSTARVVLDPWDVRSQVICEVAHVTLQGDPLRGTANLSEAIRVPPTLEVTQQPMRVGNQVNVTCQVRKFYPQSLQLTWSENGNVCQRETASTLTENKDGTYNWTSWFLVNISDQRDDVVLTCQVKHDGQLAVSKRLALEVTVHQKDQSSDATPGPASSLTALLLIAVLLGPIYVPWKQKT
Experiment: flow cytometry, myc-scFv PPE
Procedure: as §1

MFI fold change over parental CHO [fold]	Binder
10.7	B1
13.1	B2
3.98	B3

Biological target: T2, cynomolgus monkey SIRPγ-His monomer …
Experiment: BLI Octet, captured scFv PPE, cyno SIRP
Procedure: Unique binders were further tested for binding to human SIRPαV1, human SIRPαV2, and human SIRPβ1. Briefly, biotinylated anti-V5 was immobilized onto streptavidin biosensors. Each V5-tagged SIRPγ scFv antibody as crude PPE was captured by the anti-V5 antibody. SIRP-His monomer protein at 500 nM was exposed to the biosensor for binding to SIRP scFv. The biosensors were then exposed to wash buffer to measure off-rate kinetics. The resulting association and dissociation kinetics (kdis) was analyzed. […] Similarly, cross-reactivity to cynomolgus monkey SIRPγ, cynomolgus monkey SIRPα, and cynomolgus monkey SIRPβ1 were tested.

binding result	Binder
binds	B1
binds	B2
binds	B3

Biological target: T7, human SIRPγ-His monomer protein (human, UniProt Q9P1W8 29-360)
T7 construct: also called hSIRPγ
T7 sequence (Q9P1W8 29-360 limits assumed): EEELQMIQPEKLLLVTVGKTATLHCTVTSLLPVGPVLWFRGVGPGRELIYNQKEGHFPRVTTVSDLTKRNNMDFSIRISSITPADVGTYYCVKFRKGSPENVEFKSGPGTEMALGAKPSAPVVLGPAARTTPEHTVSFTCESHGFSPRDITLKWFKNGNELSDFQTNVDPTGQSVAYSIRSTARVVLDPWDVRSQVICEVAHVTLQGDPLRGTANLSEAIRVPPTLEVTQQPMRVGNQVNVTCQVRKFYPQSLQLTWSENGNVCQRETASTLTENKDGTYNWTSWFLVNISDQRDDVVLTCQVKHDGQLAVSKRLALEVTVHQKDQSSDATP
Experiment: BLI Octet, V5-scFv PPE captured, SIRP-His 500 nM

kdis [s⁻¹]	Binder
0.001 to 0.01	B1
> 0.01	B2
0.001 to 0.01	B3

Biological target: T3, cynomolgus monkey SIRPα on CHO cells
Experiment: flow cytometry, CHO transfectants, anti-human IgG
Procedure: as §1

binding result	Binder
no binding (tested: about 20 µg/mL)	B4
no binding (tested: about 20 µg/mL)	B5
no binding (tested: about 20 µg/mL)	B6
no binding (tested: about 20 µg/mL)	B7
no binding (tested: about 20 µg/mL)	B8

Biological target: T5, human SIRPβ1 on CHO cells …
Experiment: flow cytometry, CHO transfectants, anti-human IgG
Procedure: as §1

binding result	Binder
no binding (tested: about 20 µg/mL)	B4
no binding (tested: about 20 µg/mL)	B5
no binding (tested: about 20 µg/mL)	B6
no binding (tested: about 20 µg/mL)	B7
no binding (tested: about 20 µg/mL)	B8

Biological target: T4, Cynomolgus Monkey SIRPγ (plate-coated …)
Experiment: ELISA, coated SIRP ECD (2 µg/mL), anti-human IgG, luminescence
Procedure: (§2) Selected hybridoma supernatants of Example 1 were tested for binding to human SIRPγ, cynomolgus monkey SIRPγ, human SIRPα V1, cynomolgus monkey SIRPα, human SIRPβ1, and cynomolgus monkey SIRPβ1 by enzyme-linked immunosorbent assay (ELISA). Briefly, 2 μg/mL of the extracellular domain of SIRP protein was coated onto high protein-binding plates and blocked. Undiluted supernatants were added to coated plates. The antibodies were detected by an anti-rat antibody and a chemiluminescent substrate. […] The data depict the relative luminescence units read by a plate-reader capable of detecting chemiluminescence.
(§3) FIGS. 2A-2G show binding curves of SIRPγ antibodies and human Fc isotype controls to human SIRPγ, cynomolgus monkey SIRPγ, human SIRPα V1, human SIRPα V2, and human SIRPβ1 by ELISA. […] Isotype control 2 was an unrelated human IgG1 antibody with irrelevant CDRs with no modifications in the Fc region. DNA was transiently transfected into Expi293F cells for 5 days. Antibodies were purified by Protein A from cell supernatants and analyzed in a titration via ELISA as previously described in FIG. 1 using an anti-human IgG antibody as the detection antibody.

EC50 (read off the curve) [µg/mL]	Binder
~0.05	B4
~0.3	B5
~1	B6
~0.3	B7
~1	B8

Biological target: T8, extracellular binding domain of human SIRPγ (plate-coated) (human, UniProt Q9P1W8 29-360)
T8 construct: also called hSIRPγ
T8 sequence (Q9P1W8 29-360 limits assumed): as above
Experiment: as above
Procedure: as §2, §3

EC50 (read off the curve) [µg/mL]	Binder
~0.03	B4
~0.08	B5
~0.5	B6
~0.2	B7
~0.8	B8
